“Also recorded” adds a separate entry of the source.
Tests used:
cultured spinal neurons = test: In vitro delivery of Tat fusion peptide in cultured spinal neurons (Western blot, anti-His antibody); format: cell-based; conditions: 10 μM peptide, 30 min incubation, cultured mouse spinal neurons
Procedure: In Vitro Delivery of Tat Fusion Peptide in Cultured Spinal Neurons. The intracellular delivery of Tat fusion peptide was assessed by Western blot analysis 30 min after application of 10 μM Tat-PSD-95 PDZ2 to cultured spinal neurons. The same dose of PSD-95 PDZ2 without Tat served as a control. Spinal cord neuronal cultures were prepared as previously described (O'Brien, et al., 1997) with minor modification. In brief, embryonic day 14 mouse spinal cord was digested for 45 min at 34° C. Cells were gently dissociated with a 5-ml pipette, filtered through a 70-μm filter, and centrifuged through a solution of 1% soybean trypsin inhibitor and 1% bovine serum albumin at 80×g for 10 min. High-density cultures were plated at 2 million cells/60-mm dish. Cell lysates from high-density cultures were solubilized in 1% Triton X-100/0.2% sodium dodecyl sulfate (SDS) and subjected to SDS-polyacrylamide gel electrophoresis (SDS-PAGE). Proteins were immunoblotted with monoclonal anti-His antibody (Sigma) and visualized with enhanced chemiluminescence (Amersham Biosciences, Piscataway, N.J.).

[1] = Baseline paw withdrawal threshold after peptide injection; format: in vivo, mouse; conditions: mice without CFA, vs vehicle
Procedure: Behavioral Analysis. Mechanical sensitivity of the mice was measured with von Frey filaments (Stoelting, Wood Dale, Ill.) as described previously (Yang and Gereau, 2003). Mice were placed in Plexiglas testing boxes with a 1×1 cm^2 wire-mesh grid floor and habituated for 3 h before experiments. Each von Frey filament was applied to the mouse hind paw in ascending order until it bent at approximately 30° for about 3 s. The smallest filament that evoked a paw withdrawal response was taken as the mechanical threshold (paw withdrawal threshold). Similar sites were selected for measuring mechanical thresholds in all tested animals, and the thresholds were measured at approximately the same site throughout the experiment for each individual animal. Two to three measurements were made before CFA or fusion peptides injection, and the average was calculated as the baseline. Established inflammatory pain behaviors were induced by intraplantar injection of CFA solution (20 μl, 1 mg/ml). […] The effect of Tat fusion peptide on CFA-induced established inflammatory pain behaviors was expressed as % of baseline.

[2] = Tests for locomotor function (placing, grasping, righting reflexes); format: in vivo, mouse; conditions: unanesthetized mice, 4 h after intraperitoneal injection, vs vehicle
Description: Tests for Locomotor Function. Four hours after intraperitoneal injection of Tat fusion peptides, their effects on locomotor function were examined with the following tests as described previously (Coderre and Van, 1,1994; Tao, et al., 2003a). 1) Placing reflex: The mouse was held with hind limbs slightly lower than forelimbs and the dorsal surface of the hind paws was brought into contact with the edge of a table. The experimenter recorded whether the mouse placed its hind paws on the table surface reflexively; 2) Grasping reflex: The mouse was placed on a wire grid and the experimenter recorded whether the hind paws grasped the wire on contact; and 3) Righting reflex: The mouse was placed on its back on a flat surface and the experimenter noted whether it immediately assumed the normal upright position.
The effects of Tat fusion peptides on locomotor function were examined 4 h after intraperitoneal injection. The following tests were performed as described previously^23. 1) Placing reflex: The mouse was held with hind limbs slightly lower than forelimbs, and the dorsal surface of the hind paws was brought into contact with the edge of a table. The experimenter recorded whether the mouse placed its hind paws on the table surface reflexively; 2) Grasping reflex: The mouse was placed on a wire grid, and the experimenter recorded whether the hind paws grasped the wire on contact.

B1: Tat-PSD-95 PDZ2: His-tagged fusion peptide: HIV Tat minimal transduction domain (residues 47-57) fused to the second PDZ domain of PSD-95 (protein)
chain: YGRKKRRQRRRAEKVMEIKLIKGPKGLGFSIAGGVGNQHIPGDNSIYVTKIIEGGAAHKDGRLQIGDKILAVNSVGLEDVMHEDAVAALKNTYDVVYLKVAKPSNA
His-peptide detected in neurons (intracellular delivery), Western blotting with anti-His antibody (cultured spinal neurons): detected only; also recorded: only detected
effect on baseline paw withdrawal threshold [1]: no significant effect
effect on locomotor function (placing, grasping, righting reflexes) [2]: no effect; also recorded: did not show any effect

From US20100204100A1, “BIOLOGICAL AGENTS ACTIVE IN CENTRAL NERVOUS SYSTEM” (THE JOHNS HOPKINS UNIVERISTY, priority 2007, published 2010)
